For the experiment, the target named is PlsB from Themomonas haemolytica (Themomonas haemolytica). The experiment in a line: cryo-EM structure.

Here are results for 1 substance from paper doi:10.1101/2023.04.30.538836.

“PlsB from Themomonas haemolytica (enzyme)” gave a stoichiometry N of 2.

By stoichiometry N is commonly meant the number of molecules, sites or subunits per partner or assembly.
